Experimental data as given in US20230140797A1 (published 2023).
Changes are numbered by the printed parent chain. Values belong to the binder of their own block, whether it stands above or below them.

Legend:
[1] = target: T1, human FcγRIIb extracellular domain with C-terminal His tag (human, UniProt P31994 43-217); test: SPR Biacore, amount bound per captured antibody
T1 sequence (looked up): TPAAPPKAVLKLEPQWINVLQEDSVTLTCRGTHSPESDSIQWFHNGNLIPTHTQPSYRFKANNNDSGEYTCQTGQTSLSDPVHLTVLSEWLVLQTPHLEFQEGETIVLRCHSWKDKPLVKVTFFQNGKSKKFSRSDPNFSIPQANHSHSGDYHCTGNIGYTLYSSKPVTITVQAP

[2] = target: human FcγRIa extracellular domain with C-terminal His tag (human, UniProt P12314 16-292); test: SPR Biacore, amount bound per captured antibody
[3] = target: T2, human FcγRIIa type H extracellular domain with C-terminal His tag (human, UniProt P12318 34-217); test: SPR Biacore, amount bound per captured antibody
T2 sequence (looked up): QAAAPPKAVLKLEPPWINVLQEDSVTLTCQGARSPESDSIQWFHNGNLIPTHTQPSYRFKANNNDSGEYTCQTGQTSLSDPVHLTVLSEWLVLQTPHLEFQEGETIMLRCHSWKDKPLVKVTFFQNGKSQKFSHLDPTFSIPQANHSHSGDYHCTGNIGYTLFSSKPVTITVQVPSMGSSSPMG

[4] = target: T3, human FcγRIIa type R extracellular domain with C-terminal His tag (human, UniProt P12318 34-217); test: SPR Biacore, amount bound per captured antibody
T3 sequence (looked up): T2 sequence (looked up) with H134R

[5] = target: human FcγRIIIa type V extracellular domain with C-terminal His tag (human, UniProt P08637 17-208); test: SPR Biacore, amount bound per captured antibody
[6] = target: T4, human FcγRIIb extracellular domain with C-terminal His tag (human, UniProt P31994 43-217); test: Biacore SPR
T4 sequence (looked up): T1 sequence (looked up)

[7] = target: T5, human FcγRIIa type R extracellular domain with C-terminal His tag (human, UniProt P12318 34-217); test: Biacore SPR
T5 sequence (looked up): T2 sequence (looked up) with H134R

[8] = target: human IgA (hIgA) (human); test: Biacore T200 SPR
[9] = target: T6, biotinylated GPC3 peptide (human, biotin on the C-terminal Lys); test: Biacore T200 SPR, peptide on Sensor chip SA
T6 peptide: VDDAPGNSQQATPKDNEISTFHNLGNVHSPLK

Chain of human FcγRIa extracellular domain with C-terminal His tag (P12314 16-292): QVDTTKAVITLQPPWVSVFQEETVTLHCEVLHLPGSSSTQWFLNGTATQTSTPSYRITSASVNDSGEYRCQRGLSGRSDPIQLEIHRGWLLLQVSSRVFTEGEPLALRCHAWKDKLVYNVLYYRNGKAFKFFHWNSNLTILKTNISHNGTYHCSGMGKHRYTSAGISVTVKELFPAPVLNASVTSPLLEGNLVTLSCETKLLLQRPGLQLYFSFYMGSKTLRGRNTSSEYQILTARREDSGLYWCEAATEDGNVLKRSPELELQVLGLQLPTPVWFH
Chain of human FcγRIIIa type V extracellular domain with C-terminal His tag (P08637 17-208 F176V): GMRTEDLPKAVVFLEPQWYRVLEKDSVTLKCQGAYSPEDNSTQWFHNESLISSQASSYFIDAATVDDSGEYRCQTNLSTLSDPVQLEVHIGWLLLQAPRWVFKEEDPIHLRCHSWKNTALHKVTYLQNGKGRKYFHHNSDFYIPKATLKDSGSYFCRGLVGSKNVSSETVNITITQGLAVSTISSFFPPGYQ

relative binding activity [1]: 144 % of IL6R-BF648/IL6R-L
relative binding activity [2]: 112 % of IL6R-BF648/IL6R-L
relative binding activity [3]: 116 % of IL6R-BF648/IL6R-L
relative binding activity [4]: 172 % of IL6R-BF648/IL6R-L
relative binding activity [5]: 103 % of IL6R-BF648/IL6R-L
B1: IL6R-BP199/IL6R-L (antibody, human IgG1, kappa)
heavy: QVQLQESGPGLVKPSETLSLTCAVSGHSISHDHAWSWVRQPPGEGLEWIGFISYSGITNYNPSLQGRVTISRDNSKNTLYLQMNSLRAEDTAVYYCARSLARTTAMDYWGEGTLVTVSSASTKGPSVFPLAPSSKSTSGGTAALGCLVKDYFPEPVTVSWNSGALTSGVHTFPAVLQSSGLYSLSSVVTVPSSSLGTQTYICNVNHKPSNTKVDKKVEPKSCDKTHTCPPCPAPDLLGGDSVFLFPPKPKDTLMISRTPEVTCVVVDVSHEDPEVKFNWYVDGVEVHNAKTKPREEQYNSTYRVVSVLTVLHQDWLNGKEYKCKVSNAALPRPIEKTISKAKGQPREPQVYTLPPSRDELTKNQVSLTCLVKGFYPSDIAVEWESNGQPENNYKTTPPVLDSDGSFFLYSKLTVDKSRWQQGNVFSCSVMHEALHNHYTQESLSLSP
light: not shown

fold binding against IL6R-BP230/IL6R-L [6]: 1.1 times
fold binding against IL6R-BP230/IL6R-L [7]: 0.9 times
B2: IL6R-BP478/IL6R-L (antibody)
heavy: QVQLQESGPGLVKPSETLSLTCAVSGHSISHDHAWSWVRQPPGEGLEWIGFISYSGITNYNPSLQGRVTISRDNSKNTLYLQMNSLRAEDTAVYYCARSLARTTAMDYWGEGTLVTVSSASTKGPSVFPLAPCSRSTSESTAALGCLVKDYFPEPVTVSWNSGALTSGVHTFPAVLQSSGLYSLSSVVTVPSSSLGTKTYTCNVDHKPSNTKVDKRVESKYGPPCPPCPAPDLLGDDSVFLFPPKPKDTLMISRTPEVTCVVVDVSDEDGEVKFNWYVDGVEVHNAKTKPREEQDNSTYRVVSVLTVLHQDWLNGKEYKCKVSNKALPRPIEKTISKAKGQPREPQVYTLPPSRDELTKNQVSLTCLVKGFYPSDIAVEWESNGQPENNYKTTPPVLDSDGSFFLYSKLTVDKSRWQQGNVFSCSVMHEALHNHYTQESLSLSP
light: not shown

Ca-dependent hIgA-binding activity (fold) [8]: 100 times
B3: GA2-IgG1 (antibody, V domains shown)
VH: QVQLVQSGAEVKKPGSSVKVSCKASGGTFSSYAISWVRQAPGQGLEWMGGIIPIFGTANYAQKFQGRVTITADESTSTAYMELSSLRSEDTAVYYCARPRWETAISSDAFDIWGQGTMVTVSS
VL: DIQMTQSPSSLSASVGDRVTITCRASQSISDDLNWYQQKPGKAPKLLIYEASNLQSGVPSRFSGSGSGTDFTLTISSLQPEDFATYYCQQHSSSPLTFGQGTKVEIKR

binding result [9]: binds
B4: human IgE (hIgE) (antibody)
heavy: QVQLVQSGAEVKKPGASVKVSCKASGYTFTDYEMHWVRQAPGQGLEWMGALDPKTGDTAYSQKFKGRVTLTADKSTSTAYMELSSLTSEDTAVYYCTRFYSYTYWGQGTLVTVSSASTQSPSVFPLTRCCKNIPSNATSVTLGCLATGYFPEPVMVTWDTGSLNGTTMTLPATTLTLSGHYATISLLTVSGAWAKQMFTCRVAHTPSSTDWVDNKTFSVCSRDFTPPTVKILQSSCDGGGHFPPTIQLLCLVSGYTPGTINITWLEDGQVMDVDLSTASTTQEGELASTQSELTLSQKHWLSDRTYTCQVTYQGHTFEDSTKKCADSNPRGVSAYLSRPSPFDLFIRKSPTITCLVVDLAPSKGTVNLTWSRASGKPVNHSTRKEEKQRNGTLTVTSTLPVGTRDWIEGETYQCRVTHPHLPRALMRSTTKTSGPRAAPEVYAFATPEWPGSRDKRTLACLIQNFMPEDISVQWLHNEVQLPDARHSTTQPRKTKGSGFFVFSRLEVTRAEWEQKDEFICRAVHEAASPSQTVQRAVSVNPGK
light: DVVMTQSPLSLPVTPGEPASISCRSSQSLVHSNRNTYLHWYLQKPGQSPQLLIYKVSNRFSGVPDRFSGSGSGTDFTLKISRVEAEDVGVYYCSQNTHVPPTFGQGTKLEIKRTVAAPSVFIFPPSDEQLKSGTASVVCLLNNFYPREAKVQWKVDNALQSGNSQESVTEQDSKDSTYSLSSTLTLSKADYEKHKVYACEVTHQGLSSPVTKSFNRGEC
